What was measured:
Experiment in all cases: cell-based or functional assay
[1] = target: HIV-1 92TH021 envelope glycoprotein (Env) on pseudovirus (HIV-1)
[2] = target: HIV-1 92UG024 envelope glycoprotein (Env) on pseudovirus (HIV-1)
[3] = target: HIV-1 MGRM-D-018 envelope glycoprotein (Env) on pseudovirus (HIV-1)
[4] = target: HIV-1 Env of isolate 92TH021 (HIV-1)
[5] = target: HIV-1 Env of isolate JRCSF (HIV-1) (UniProt P20871)
[6] = target: HIV-1 Env of isolate MGRM-C-026 (HIV-1)

1496_C09 (PG9) (TCN-109) monoclonal antibody
IC50, pseudovirus neutralization [1]: 0.103 µg/mL | IC50, pseudovirus neutralization [2]: 1.91 µg/mL | IC50, pseudovirus neutralization [3]: 0.0444 µg/mL

PGT-132 (B cell culture well 5113_D22) (antibody)
Primary Neutralization Index (B cell culture well 5113 D22) [4]: 51 | Primary Neutralization Index (B cell culture well 5113 D22) [5]: 3 | Primary Neutralization Index (B cell culture well 5113 D22) [6]: 6

PGT-133 (B cell culture well 5117_E22) (antibody)
Primary Neutralization Index (B cell culture well 5117 E22) [4]: 42.5 | Primary Neutralization Index (B cell culture well 5117 E22) [5]: 3.6 | Primary Neutralization Index (B cell culture well 5117 E22) [6]: 3.4

From patent US20200024330A1
